Holding throughout (test): competition
The target of test [1] is T1, rat NK1 receptor (rat, UniProt P14600).
T1 chain: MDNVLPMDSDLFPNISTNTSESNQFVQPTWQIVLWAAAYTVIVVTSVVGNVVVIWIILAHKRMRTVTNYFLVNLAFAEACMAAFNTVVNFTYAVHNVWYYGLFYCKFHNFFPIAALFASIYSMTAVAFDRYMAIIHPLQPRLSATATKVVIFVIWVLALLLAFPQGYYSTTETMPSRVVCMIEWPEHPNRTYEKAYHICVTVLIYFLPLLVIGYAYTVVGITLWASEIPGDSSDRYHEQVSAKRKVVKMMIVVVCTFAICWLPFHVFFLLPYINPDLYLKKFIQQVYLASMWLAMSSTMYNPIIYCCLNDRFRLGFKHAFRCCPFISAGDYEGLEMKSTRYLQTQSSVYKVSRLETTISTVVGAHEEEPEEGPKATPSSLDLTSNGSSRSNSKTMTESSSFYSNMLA

Test [2] has as its target T2, human NK1 receptor (human, UniProt P25103).
T2 chain: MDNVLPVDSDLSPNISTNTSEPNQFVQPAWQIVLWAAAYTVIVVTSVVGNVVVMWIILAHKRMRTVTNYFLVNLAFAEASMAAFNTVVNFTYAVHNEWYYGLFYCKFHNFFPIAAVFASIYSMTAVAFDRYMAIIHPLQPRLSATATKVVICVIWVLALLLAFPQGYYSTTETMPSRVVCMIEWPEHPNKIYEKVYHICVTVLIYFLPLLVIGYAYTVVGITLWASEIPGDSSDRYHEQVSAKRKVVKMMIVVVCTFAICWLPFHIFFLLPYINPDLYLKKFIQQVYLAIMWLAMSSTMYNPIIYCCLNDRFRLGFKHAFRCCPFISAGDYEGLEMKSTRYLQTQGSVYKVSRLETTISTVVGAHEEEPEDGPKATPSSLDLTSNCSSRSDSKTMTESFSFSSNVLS

Test [3] addresses mu opioid receptor (MOR) (UniProt P35372).
For test [4], the target named is T2, human NK1 receptor.
The target of test [5] is T1, rat NK1 receptor.
The target of test [6] is mu opioid receptor (MOR) (UniProt P35372). This is another data set of the same source.
Test [7] addresses T3, delta opioid receptor (DOR) (UniProt P41143).
T3 chain: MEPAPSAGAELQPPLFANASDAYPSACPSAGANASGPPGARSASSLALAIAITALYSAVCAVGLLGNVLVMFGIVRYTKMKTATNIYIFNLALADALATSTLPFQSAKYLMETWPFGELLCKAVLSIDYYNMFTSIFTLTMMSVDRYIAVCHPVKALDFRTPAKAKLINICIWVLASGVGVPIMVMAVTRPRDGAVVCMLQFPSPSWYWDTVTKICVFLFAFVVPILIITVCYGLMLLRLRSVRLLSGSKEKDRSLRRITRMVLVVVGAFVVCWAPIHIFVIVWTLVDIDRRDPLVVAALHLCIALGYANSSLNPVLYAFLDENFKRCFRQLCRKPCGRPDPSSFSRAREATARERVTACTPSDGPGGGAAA

The target in test [8] is T1, rat NK1 receptor.
Test [9] concerns the target T2, human NK1 receptor.
Test [10] deals with mu opioid receptor (MOR) (UniProt P35372). This is another data set of the same source.
The target of test [11] is T3, delta opioid receptor (DOR).

Like-named read-outs stand apart in the source and are kept apart here. Non-standard residues stand in square brackets, D forms with d. Primed or numbered codes have the meaning given here. No end group written: not given here. *: point of attachment. NH(3,5-(CF3)2-benzyl) = FC(F)(F)c1cc(CN*)cc(C(F)(F)F)c1; NMePhe(4-F) = CN[C@@H](Cc1ccc(F)cc1)C(=O)O; Phe(4-F) = N[C@@H](Cc1ccc(F)cc1)C(=O)O; Dmt = Cc1cc(O)cc(C)c1C[C@H](N)C(=O)O; NMeF = CN[C@@H](Cc1ccccc1)C(=O)O; 4‑Ampa = not defined here; 4‑Apac = not defined here; hSer = N[C@@H](CCO)C(=O)O; 4Abz = Nc1ccc(C(=O)O)cc1; 4Amb′ = not defined here; Dap = NC[C@H](N)C(=O)O; NHBn = c1ccc(CN*)cc1; Ahx = NCCCCCC(=O)O; GABA = NCCCC(=O)O; βAla = NCCC(=O)O

mu opioid receptor (MOR), sequence (P35372 whole entry): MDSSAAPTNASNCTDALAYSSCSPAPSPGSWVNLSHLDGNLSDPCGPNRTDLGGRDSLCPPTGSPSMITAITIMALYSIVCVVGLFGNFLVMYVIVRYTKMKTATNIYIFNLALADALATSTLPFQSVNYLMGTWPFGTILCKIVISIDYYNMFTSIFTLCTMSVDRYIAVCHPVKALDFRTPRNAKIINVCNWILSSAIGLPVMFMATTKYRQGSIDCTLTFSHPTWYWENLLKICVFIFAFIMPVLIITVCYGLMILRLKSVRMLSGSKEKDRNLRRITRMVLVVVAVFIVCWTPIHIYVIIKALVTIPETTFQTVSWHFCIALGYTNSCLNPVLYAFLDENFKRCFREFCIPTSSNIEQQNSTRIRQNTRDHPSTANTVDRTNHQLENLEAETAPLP

As to XAGFPLW (Dmt1, D-Ala2, NMePhe(4-F)4; C-terminal NH-Bn(3',5'-(CF3)2)) [AKG128], the Ki stood at 33.8 nM with rat NK1 receptor [1], 2.62 nM in the test with human NK1 receptor [2] and 1 nM with mu opioid receptor (MOR) [3].
For the molecule XAGFMPLW (not fully specified; Dmt1, D-Ala2, NMePhe4 as described; C-terminal benzylamide) [AKG107], the Ki was determined as 1.97 nM with human NK1 receptor [4] and 13.6 nM with rat NK1 receptor [5].
For the molecule XAGFPLW (Dmt1, D-NMeAla2, NMeGly3, NMePhe4; C-terminal NH-Bn(3',5'-(CF3)2)) [AKG185], the Ki with rat NK1 receptor [1] worked out at 74.8 nM; in the test with human NK1 receptor [2], 3.47 nM.
With XAGFPLW (Dmt1, D-Ala2, Phe(4-Br)4; C-terminal NH-Bn(3',5'-(CF3)2)) [AKG192], the inhibition constant Ki with human NK1 receptor [2] came to 2.54 nM; in the test with mu opioid receptor (MOR) [3] it was 5 nM.
As for Y[dA]GFPLW-{NH(3,5-(CF3)2-benzyl)} [TY012], the inhibition constant (Ki) in the test with rat NK1 receptor [1] turned out to be 33 nM; with human NK1 receptor [2], 0.6 nM; in the test with mu opioid receptor (MOR) [3] it was 9.5 nM.
As to Y[dA]G[NMeF][GABA]PLW-{NH(3,5-(CF3)2-benzyl)} [AKG123], the inhibition constant (Ki) in the test with mu opioid receptor (MOR) [6] worked out at 9 nM; with human NK1 receptor [4] it was 1.56 nM; in test [7] it was 3 nM.
With Y[dA]G[NMeF]MPLW-NHBn [AKG106], the results for the Ki with human NK1 receptor [4] and in the test with rat NK1 receptor [5] were 1.47 nM and 9.9 nM, respectively.
Consider Y[dA]GF[dS]PLW-NHBn [AKG101], for which the Ki came out at 108 nM in the test with rat NK1 receptor [8], 2.77 nM in the test with human NK1 receptor [9], 196 nM with mu opioid receptor (MOR) [10] and 34 nM in test [11].
In the case of Y[dA]G[Phe(4-F)]GPLW-{NH(3,5-(CF3)2-benzyl)} [AKG130], the Ki amounted to 9 nM with mu opioid receptor (MOR) [6], 1.54 nM in the test with human NK1 receptor [4], 5 nM in [7] and 72.5 nM with rat NK1 receptor [5].
On to Y[dA]G[NMeF][Dap]PLW-NHBn [AKG171], for which the Ki with rat NK1 receptor [8] is 8.59 nM; with human NK1 receptor [9], 2.98 nM; with mu opioid receptor (MOR) [10], 3 nM; in [11] it was 33 nM.
With Y[dA]G[NMeF]SPLW-NHBn [AKG126], the Ki was found to be 31.5 nM in the test with rat NK1 receptor [8], 0.86 nM with human NK1 receptor [9], 2 nM with mu opioid receptor (MOR) [10] and 63 nM in [11].
On to XAGFPLW (Dmt1, D-Ala2, NMeGly3, NMePhe4; C-terminal NH-Bn(3',5'-(CF3)2)) [AKG182], for which the inhibition constant (Ki) in the test with rat NK1 receptor [1] was found to be 110 nM; with human NK1 receptor [2], 5 nM.
As for Y[dA]G[NMeF][4Amb′]PLW-{NH(3,5-(CF3)2-benzyl)} (reading uncertain) [AKG125], the Ki in the test with mu opioid receptor (MOR) [6] is 5 nM; with human NK1 receptor [4], 2.27 nM; in test [7], 117 nM; with rat NK1 receptor [5], 29.9 nM.
Turning to XAGFPLW (Dmt1, D-Ala2, Phe(4-I)4; C-terminal NH-Bn(3',5'-(CF3)2)) [AKG193], the Ki in the test with mu opioid receptor (MOR) [3] was 6 nM.
Regarding [Dmt][dA]G[NMeF]SPLW-NHBn [AKG132], the Ki with rat NK1 receptor [8] was 31.1 nM; with human NK1 receptor [9], 5.61 nM; in the test with mu opioid receptor (MOR) [10] it was 0.4 nM; in [11] it was 2 nM.
In the same order, the values of Y[dA]GF[hSer]PLW-NHBn [AKG039] are 148 nM, 1.32 nM, 116 nM and 6 nM.
Take XAGFPLW (Dmt1, D-Ala2, NMeGly3; C-terminal NH-Bn(3',5'-(CF3)2)) [AKG180]: the Ki is 17.1 nM with rat NK1 receptor [1] and 2.86 nM in the test with human NK1 receptor [2].
XAGFPLW (Dmt1, D-NMeAla2; C-terminal NH-Bn(3',5'-(CF3)2)) [AKG181]: the values for the Ki in the test with rat NK1 receptor [1] and in the test with human NK1 receptor [2] were 26.4 nM and 4.81 nM, respectively.
Turning to Y[dA]GFSPLW (not fully specified (C-terminus)) [AKG038], the Ki in the test with rat NK1 receptor [8] turned out to be 206 nM; with human NK1 receptor [9], 1.94 nM; with mu opioid receptor (MOR) [10], 127 nM; in test [11], 7 nM.
Y[dA]G[NMeF]KPLW (not fully specified (C-terminus)) [AKG174]: the Ki with rat NK1 receptor [8] was 7.31 nM; with human NK1 receptor [9] it was 3.18 nM; with mu opioid receptor (MOR) [10], 8 nM.
In the case of Y[dA]G[NMeF][βAla]PLW-{NH(3,5-(CF3)2-benzyl)} [AKG119], the Ki was 8 nM with mu opioid receptor (MOR) [6], 0.93 nM with human NK1 receptor [4], 46 nM in test [7] and 29.4 nM with rat NK1 receptor [5].
In the case of Y[dA]G[NMePhe(4-F)]GPLW-{NH(3,5-(CF3)2-benzyl)} [AKG131], the inhibition constant Ki with mu opioid receptor (MOR) [6] came to 185 nM; with human NK1 receptor [4] it was 2.14 nM; in [7], 17 nM; in the test with rat NK1 receptor [5], 89.1 nM.
For XAGFPLW (Dmt1, D-NMeAla2, NMePhe4; C-terminal NH-Bn(3',5'-(CF3)2)) [AKG184], the inhibition constant Ki with rat NK1 receptor [1] was 115 nM; with human NK1 receptor [2], 2.84 nM.
With Y[dA]G[NMeF][Ahx]PLW-{NH(3,5-(CF3)2-benzyl)} [AKG124], the Ki with mu opioid receptor (MOR) [6] was 7 nM; in the test with human NK1 receptor [4], 1.22 nM; in test [7], 31 nM; with rat NK1 receptor [5], 44.3 nM.
On to Y[dA]G[NMeF][4‑Ampa]PLW-{NH(3,5-(CF3)2-benzyl)} (reading uncertain) [AKG178], for which the figures for the Ki (with human NK1 receptor [4]; in test [7]; with rat NK1 receptor [5]) were 3.5 nM, 100 nM and 72.3 nM, respectively.
XAGFPLW (Dmt1, D-NMeAla2, NMeGly3; C-terminal NH-Bn(3',5'-(CF3)2)) [AKG183]: the figures for the Ki with rat NK1 receptor [1] and in the test with human NK1 receptor [2] were 17.6 nM and 2.49 nM, respectively.
For the molecule YAGFXPLW (D-Ala2, NMePhe4, Nle5; C-terminal NH-Bn(3',5'-(CF3)2)) [AKG112], the inhibition constant Ki is 13 nM with mu opioid receptor (MOR) [6], 14 nM in the test with human NK1 receptor [4] and 22 nM in test [7].
As for Y[dA]G[NMeF]GPLW-{NH(3,5-(CF3)2-benzyl)} [AKG113], the inhibitory constant (Ki) with mu opioid receptor (MOR) [6] stood at 3 nM; with human NK1 receptor [4], 15 nM; in test [7], 46 nM; with rat NK1 receptor [5], 60.5 nM.
In the case of Y[dA]G[NMeF][4‑Apac]PLW-{NH(3,5-(CF3)2-benzyl)} (reading uncertain) [AKG177], the inhibition constant Ki in the test with mu opioid receptor (MOR) [6] is 1 nM; with human NK1 receptor [4] it was 5.28 nM; in [7], 70 nM; with rat NK1 receptor [5], 74.3 nM.
Regarding Y[dA]G[NMeF][4Abz]PLW-{NH(3,5-(CF3)2-benzyl)} [AKG176], the Ki worked out at 1 nM with mu opioid receptor (MOR) [6], 4.12 nM in the test with human NK1 receptor [4], 82 nM in test [7] and 77.8 nM with rat NK1 receptor [5].

Usually Ki stands for a measure of affinity in units of concentration, obtained from inhibition or displacement.

(Values after patent US11141452 (dated 2021).)
